± gives the uncertainty stated by the source.
Experiment: self-splicing fitness, log relative to wild type (ln ratio); higher = more splicing; Tetrahymena group I intron in knt gene, E. coli kanamycin selection, DiMSum; sequences stand for … in CUCUCU…GGAGGGAAAAGUUAUCAGGCAUGCACCUGGUAGCUAGUCUUUAAACCAAUAGAUUGCAUCGGUUUAAAAGGCAAGACCGUCAAAUUGCGGGAAAGGGGUCAACAGCCGUUCAGUACCAAGUCUCAGGGGAAACUUUGAGAUGGCCUUGCAAAGGGUAUGGUAAUAAGCUGACGGACAUGGUCCUAACCACGCAGCCAAGUCCUAAGUCAACAGAUCUUCUGUUGAUAUGGAUGCAGUUCACAGACUAAAUGUCGGUCGGGGAAGAUGUAUUCUUCUCAUAAGAUAUAGUCGGACCUCUCCUUAAUGGGAGCUAGCGGAUGAAGUGAUGCAACACUGGAGCCGCUGGGAACUAAUUUGUAUGCGAAAGUAUAUUGAUUAGUUUUGGAGUACUCGUGGUCG
Summary of the method: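 Pooled colonies went to amplicon sequencing on an Illumina HiSeq 2500 after six replicate transformations. The plates were LB agar with 100 μg/mL carbenicillin, 50 μM IPTG and 0.2% rhamnose, with or without 25 μg/mL kanamycin, incubated overnight at 37°C or 30°C. The E. coli BL21(DE3) library had all eight P1ex-region intron nucleotides randomised, the intron placed in the knt kanamycin-resistance gene on pET-22b(+). DiMSum fitness is the error-weighted combination of replicate fold changes, kanamycin against none, normalised to wild type.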

| Sequence | self-splicing fitness (ln) (30 °C) | self-splicing fitness (ln) (37 °C) |
| --- | --- | --- |
| GGUAAGCAAUAUUACGUACG | -0.395 ± 0.11 | -0.415 ± 0.12 |
| GGUAAGCAAUAUUACGUCGA | – | -0.708 ± 0.25 |
| GGUAAGCAAUAUUACGUGAU | -1.64 ± 0.099 | -1.68 ± 0.12 |
| GGUAAGCAAUAUUACGUUUG | – | -2.56 ± 0.21 |
| GGUCAGCAAUAUUACGAAGU | -0.729 ± 0.076 | -0.336 ± 0.1 |
| GGUCAGCAAUAUUACGAGAA | -1.23 ± 0.47 | -2.01 ± 0.38 |
| GGUCAGCAAUAUUACGAUCC | – | -0.912 ± 0.18 |
| GGUCAGCAAUAUUACGAUCU | -1.8 ± 0.17 | -1.93 ± 0.24 |
| GGUCAGCAAUAUUACGCCAA | -1.17 ± 0.25 | -2.06 ± 0.22 |
| GGUCAGCAAUAUUACGCCGA | – | -2.65 ± 0.48 |
| GGUCAGCAAUAUUACGCUGU | -3.34 ± 0.21 | -1.62 ± 0.18 |
| GGUCAGCAAUAUUACGGAAG | -2.27 ± 0.2 | -1.58 ± 0.23 |
| GGUCAGCAAUAUUACGGACG | -0.915 ± 0.11 | 0.0247 ± 0.16 |
| GGUCAGCAAUAUUACGGCCA | -2.33 ± 0.19 | -0.589 ± 0.17 |
| GGUCAGCAAUAUUACGGUUU | -0.421 ± 0.074 | 0.264 ± 0.099 |
| GGUCAGCAAUAUUACGUAAA | 0.301 ± 0.14 | 0.672 ± 0.18 |
| GGUCAGCAAUAUUACGUAAU | -0.42 ± 0.11 | 0.68 ± 0.14 |
| GGUCAGCAAUAUUACGUAGA | -0.689 ± 0.081 | -0.164 ± 0.096 |
| GGUCAGCAAUAUUACGUAGG | -2.33 ± 0.15 | -1.84 ± 0.18 |
| GGUCAGCAAUAUUACGUCUU | 0.322 ± 0.078 | 0.402 ± 0.089 |
| GGUCAGCAAUAUUACGUUAU | -0.97 ± 0.092 | -0.158 ± 0.1 |
| GGUCAGCAAUAUUACGUUUC | 0.000828 ± 0.13 | -0.437 ± 0.14 |
| GGUGAGCAAUAUUACGAAAC | -2.41 ± 0.24 | -1.02 ± 0.27 |
| GGUGAGCAAUAUUACGAGGU | -2.22 ± 0.29 | -1.68 ± 0.27 |
| GGUGAGCAAUAUUACGAUAU | -2.31 ± 0.2 | -1.83 ± 0.23 |

| Sequence | self-splicing fitness (ln) (30 °C) | self-splicing fitness (ln) (37 °C) |
| --- | --- | --- |
| GGUGAGCAAUAUUACGAUCA | -1.24 ± 0.13 | -0.356 ± 0.15 |
| GGUGAGCAAUAUUACGCAUG | -1.48 ± 0.11 | -0.697 ± 0.15 |
| GGUGAGCAAUAUUACGCAUU | -1.28 ± 0.25 | -1.89 ± 0.34 |
| GGUGAGCAAUAUUACGCGAU | -3.7 ± 0.46 | – |
| GGUGAGCAAUAUUACGCUAG | – | -1.65 ± 0.45 |
| GGUGAGCAAUAUUACGCUCG | – | -1.37 ± 0.4 |
| GGUGAGCAAUAUUACGCUGG | -2.87 ± 0.19 | -1.12 ± 0.16 |
| GGUGAGCAAUAUUACGCUGU | -3.68 ± 0.34 | -1.64 ± 0.27 |
| GGUGAGCAAUAUUACGGACA | -1.48 ± 0.17 | -0.688 ± 0.16 |
| GGUGAGCAAUAUUACGGCGA | -1.1 ± 0.12 | -1.39 ± 0.14 |
| GGUGAGCAAUAUUACGGCGG | -3.44 ± 0.23 | -1.73 ± 0.35 |
| GGUGAGCAAUAUUACGGGAA | -1.89 ± 0.3 | -2.5 ± 0.48 |
| GGUGAGCAAUAUUACGUAAA | -2.79 ± 0.3 | -1.45 ± 0.31 |
| GGUGAGCAAUAUUACGUAAC | -2.35 ± 0.43 | -1.22 ± 0.28 |
| GGUGAGCAAUAUUACGUUAA | -1.89 ± 0.18 | -1.09 ± 0.24 |
| GGUGAGCAAUAUUACGUUUA | -3.01 ± 0.28 | -1.44 ± 0.18 |
| GGUUAGCAAUAUUACGAAUC | -1.76 ± 0.16 | -1.06 ± 0.24 |
| GGUUAGCAAUAUUACGCAAG | -2.45 ± 0.16 | -1.01 ± 0.12 |
| GGUUAGCAAUAUUACGCGAG | -1.9 ± 0.2 | -0.416 ± 0.13 |
| GGUUAGCAAUAUUACGCUCC | -1.71 ± 0.39 | 0.76 ± 0.48 |
| GGUUAGCAAUAUUACGCUGC | -1.38 ± 0.26 | – |
| GGUUAGCAAUAUUACGGACA | -0.743 ± 0.12 | 0.373 ± 0.15 |
| GGUUAGCAAUAUUACGGCCG | -0.999 ± 0.19 | -0.019 ± 0.25 |
| GGUUAGCAAUAUUACGGGAU | -3.13 ± 0.26 | -1.4 ± 0.24 |
| GGUUAGCAAUAUUACGGGCU | -3.26 ± 0.41 | -1.68 ± 0.32 |

| Sequence | self-splicing fitness (ln) (30 °C) | self-splicing fitness (ln) (37 °C) |
| --- | --- | --- |
| GGUUAGCAAUAUUACGGGUG | -1.7 ± 0.1 | -1.08 ± 0.12 |
| GGUUAGCAAUAUUACGUAGG | -2.51 ± 0.18 | -1.03 ± 0.14 |
| GGUUAGCAAUAUUACGUGCA | -0.869 ± 0.19 | -0.121 ± 0.18 |
| GGUUAGCAAUAUUACGUGGA | -2.72 ± 0.2 | -1.08 ± 0.14 |
| GGUUAGCAAUAUUACGUUCA | 0.228 ± 0.14 | -0.557 ± 0.13 |
| GGUUAGCAAUAUUACGUUUA | -1.5 ± 0.096 | -0.992 ± 0.088 |
| GGUUAGCAAUAUUACGUUUU | -1.03 ± 0.055 | -0.945 ± 0.083 |
| GUAAAGCAAUAUUACGAAAC | -1.83 ± 0.13 | -0.6 ± 0.13 |
| GUAAAGCAAUAUUACGAACU | -0.845 ± 0.11 | -0.0974 ± 0.14 |
| GUAAAGCAAUAUUACGAAUC | -1.71 ± 0.14 | -0.902 ± 0.14 |
| GUAAAGCAAUAUUACGACGA | 0.208 ± 0.073 | 1.1 ± 0.1 |
| GUAAAGCAAUAUUACGACUA | -0.649 ± 0.097 | -0.957 ± 0.11 |
| GUAAAGCAAUAUUACGAUAG | -1.08 ± 0.075 | -0.747 ± 0.11 |
| GUAAAGCAAUAUUACGAUUG | -2.98 ± 0.18 | -0.942 ± 0.22 |
| GUAAAGCAAUAUUACGAUUU | -0.348 ± 0.051 | 0.232 ± 0.065 |
| GUAAAGCAAUAUUACGCAUC | -1.36 ± 0.11 | -0.97 ± 0.15 |
| GUAAAGCAAUAUUACGCCAC | – | -1.86 ± 0.24 |
| GUAAAGCAAUAUUACGCCGG | -1.27 ± 0.13 | 0.13 ± 0.17 |
| GUAAAGCAAUAUUACGCGCU | -1.4 ± 0.075 | -0.523 ± 0.096 |
| GUAAAGCAAUAUUACGCGGU | -2.79 ± 0.12 | -1.87 ± 0.15 |
| GUAAAGCAAUAUUACGCUAU | -1.22 ± 0.087 | -0.23 ± 0.1 |
| GUAAAGCAAUAUUACGCUCG | -0.0287 ± 0.1 | 0.709 ± 0.13 |
| GUAAAGCAAUAUUACGGAAA | -2.68 ± 0.14 | -1.38 ± 0.18 |
| GUAAAGCAAUAUUACGGAAU | -0.906 ± 0.099 | -0.779 ± 0.15 |
| GUAAAGCAAUAUUACGGACG | -1.06 ± 0.12 | 0.298 ± 0.15 |

| Sequence | self-splicing fitness (ln) (30 °C) | self-splicing fitness (ln) (37 °C) |
| --- | --- | --- |
| GUAAAGCAAUAUUACGGCCG | -0.257 ± 0.087 | 0.625 ± 0.12 |
| GUAAAGCAAUAUUACGGGUA | -1.02 ± 0.078 | -0.464 ± 0.085 |
| GUAAAGCAAUAUUACGGUGU | -1.5 ± 0.056 | -0.647 ± 0.07 |
| GUAAAGCAAUAUUACGUAUC | -1.1 ± 0.07 | -0.568 ± 0.098 |
| GUAAAGCAAUAUUACGUGCC | -3.19 ± 0.16 | -1.93 ± 0.17 |
| GUAAAGCAAUAUUACGUGCG | -0.447 ± 0.065 | -0.538 ± 0.069 |
| GUAAAGCAAUAUUACGUUGA | -1.97 ± 0.071 | -0.945 ± 0.098 |
| GUAAAGCAAUAUUACGUUGC | -2.38 ± 0.1 | -3.2 ± 0.26 |
| GUAAAGCAAUAUUACGUUGG | -1.84 ± 0.12 | -1.56 ± 0.13 |
| GUACAGCAAUAUUACGACGU | -0.603 ± 0.075 | 0.215 ± 0.081 |
| GUACAGCAAUAUUACGAGAG | -2.62 ± 0.29 | -2.64 ± 0.25 |
| GUACAGCAAUAUUACGAGCG | -2.59 ± 0.11 | -0.624 ± 0.098 |
| GUACAGCAAUAUUACGAGGU | -4.68 ± 0.29 | -1.97 ± 0.16 |
| GUACAGCAAUAUUACGAUAG | -3.23 ± 0.16 | -0.84 ± 0.13 |
| GUACAGCAAUAUUACGCAAA | -0.875 ± 0.14 | -2.48 ± 0.28 |
| GUACAGCAAUAUUACGCCUG | -2.24 ± 0.25 | -0.634 ± 0.19 |
| GUACAGCAAUAUUACGCUCU | -0.911 ± 0.091 | -0.379 ± 0.11 |
| GUACAGCAAUAUUACGCUUG | -1.97 ± 0.098 | -1.1 ± 0.12 |
| GUACAGCAAUAUUACGGAUG | -2.79 ± 0.2 | -1.8 ± 0.17 |
| GUACAGCAAUAUUACGGCGG | -2.78 ± 0.19 | -2.66 ± 0.22 |
| GUACAGCAAUAUUACGGGCA | -1.9 ± 0.093 | -0.873 ± 0.088 |
| GUACAGCAAUAUUACGUAAA | -2.87 ± 0.14 | -1.44 ± 0.16 |
| GUACAGCAAUAUUACGUCUC | -0.298 ± 0.11 | -0.182 ± 0.12 |

— the supplement of paper PMC7877785
